Laboratory results reported in PMC9578707, “Identification of orphan ligand-receptor relationships using a cell-based CRISPRa enrichment screening platform” (eLife, 2022).
One block for each binder: values may come before it.

Tests used:
[1] = target: ROR1 and MFRP; test: SPR; Biacore T100; biotinylated receptor ECD or hit protein captured on a streptavidin chip (~100-200 RU), non-biotinylated secreted ligand as analyte in twofold dilutions; HBS-P+ buffer; 1:1 Langmuir model or equilibrium fit
[2] = target: T1, MFRP-ECD (human, UniProt Q9BY79 91-579, biotin (captured on the streptavidin chip)); test: as above; conditions: both partners purified
T1 construct: membrane Frizzled-related protein, human, extracellular domain; construct of the ECD is not described; also called membrane Frizzled (FZD)-related protein; source: Expi293F, purified (Ni-NTA, SEC)
T1 sequence (looked up): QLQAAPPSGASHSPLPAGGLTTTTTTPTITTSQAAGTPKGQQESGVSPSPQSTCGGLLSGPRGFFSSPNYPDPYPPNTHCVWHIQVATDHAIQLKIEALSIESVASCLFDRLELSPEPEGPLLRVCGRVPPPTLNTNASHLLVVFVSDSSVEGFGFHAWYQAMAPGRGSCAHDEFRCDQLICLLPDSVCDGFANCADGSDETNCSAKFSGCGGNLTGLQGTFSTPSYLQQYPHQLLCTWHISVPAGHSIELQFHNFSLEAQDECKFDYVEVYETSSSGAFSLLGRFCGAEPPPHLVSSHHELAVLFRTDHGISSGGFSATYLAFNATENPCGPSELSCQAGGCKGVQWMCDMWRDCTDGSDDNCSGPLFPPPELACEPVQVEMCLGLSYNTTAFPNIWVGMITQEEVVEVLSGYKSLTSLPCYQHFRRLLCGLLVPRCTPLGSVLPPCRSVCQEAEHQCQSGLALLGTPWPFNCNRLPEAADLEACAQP

[3] = target: T2, ROR1-ECD (human, UniProt Q01973 30-406, biotin (captured on the streptavidin chip)); test: as above; conditions: both partners purified
T2 construct: ROR1, human, extracellular domain; construct of the ECD is not described; source: Expi293F, purified (Ni-NTA, SEC)

[4] = target: T3, MFRP-ECD (membrane Frizzled-related protein, extracellular domain) (human, UniProt Q9BY79 91-579, biotin (BirA biotinylation; captured on streptavidin chip)); test: SPR; Biacore T100; biotinylated ligand captured on a streptavidin (SA) Series S chip (~100-200 RU); non-biotinylated analyte in twofold dilutions in HBS-P+; 60 s injection at 30 ul/min, 240 s dissociation; regeneration 2 x 10 sec 2M MgCl2; KD from the fit at equilibrium (steady state); conditions: both partners purified
T3 construct: membrane Frizzled-related protein (MFRP), human, extracellular domain; source: Expi293F, purified (Ni-NTA, SEC), biotinylated in vitro with BirA
T3 sequence (looked up): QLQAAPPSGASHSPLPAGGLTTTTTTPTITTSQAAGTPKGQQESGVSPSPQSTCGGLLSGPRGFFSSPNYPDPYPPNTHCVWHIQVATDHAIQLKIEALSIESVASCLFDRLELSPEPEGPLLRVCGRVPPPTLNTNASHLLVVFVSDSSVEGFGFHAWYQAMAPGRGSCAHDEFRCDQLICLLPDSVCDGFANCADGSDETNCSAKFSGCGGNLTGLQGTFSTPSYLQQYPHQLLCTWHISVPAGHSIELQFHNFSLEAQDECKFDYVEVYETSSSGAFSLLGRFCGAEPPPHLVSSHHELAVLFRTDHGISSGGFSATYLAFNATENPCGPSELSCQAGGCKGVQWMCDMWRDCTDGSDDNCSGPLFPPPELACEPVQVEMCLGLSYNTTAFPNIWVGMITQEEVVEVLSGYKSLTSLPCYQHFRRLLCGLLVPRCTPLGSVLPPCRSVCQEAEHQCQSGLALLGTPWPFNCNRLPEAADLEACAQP

[5] = target: T4, ROR1-ECD (transmembrane receptor tyrosine kinase ROR1, extracellular domain) (human, UniProt Q01973 30-406, biotin (BirA biotinylation; captured on streptavidin chip)); test: as above; conditions: both partners purified
T4 construct: receptor tyrosine kinase ROR1, human, extracellular domain; source: Expi293F, purified (Ni-NTA, SEC), biotinylated in vitro with BirA

[6] = target: the molecule itself; test: SPR; Biacore T100; biotinylated receptor ECD or hit protein captured on a streptavidin chip (~100-200 RU), non-biotinylated secreted ligand as analyte in twofold dilutions; HBS-P+ buffer; 1:1 Langmuir model or equilibrium fit
[7] = target: T5, growth arrest specific 1 protein (GAS1) (human, UniProt P54826 40-317); test: SPR; Biacore T100; biotinylated ligand captured on a streptavidin (SA) Series S chip (~100-200 RU); non-biotinylated analyte in twofold dilutions in HBS-P+; 60 s injection at 30 ul/min, 240 s dissociation; regeneration 2 x 10 sec 2M MgCl2; KD from the fit at equilibrium (steady state); conditions: both partners purified
T5 construct: growth arrest specific 1 (GAS1), human; source: Expi293F, purified (Ni-NTA, SEC), not biotinylated (SPR analyte)
T5 sequence (looked up): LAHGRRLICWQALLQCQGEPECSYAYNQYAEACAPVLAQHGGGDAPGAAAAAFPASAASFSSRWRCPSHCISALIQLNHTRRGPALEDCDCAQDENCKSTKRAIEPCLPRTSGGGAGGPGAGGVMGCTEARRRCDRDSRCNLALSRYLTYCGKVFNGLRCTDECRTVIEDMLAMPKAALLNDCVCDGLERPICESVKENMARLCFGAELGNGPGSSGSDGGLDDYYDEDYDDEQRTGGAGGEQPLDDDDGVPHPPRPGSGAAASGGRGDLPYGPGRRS

B3: SMOC1 (ligand, human, UniProt Q9H4F8 27-434, looked up)
chain: HRTTGPRFLISDRDPQCNLHCSRTQPKPICASDGRSYESMCEYQRAKCRDPTLGVVHRGRCKDAGQSKCRLERAQALEQAKKPQEAVFVPECGEDGSFTQVQCHTYTGYCWCVTPDGKPISGSSVQNKTPVCSGSVTDKPLSQGNSGRKDDGSKPTPTMETQPVFDGDEITAPTLWIKHLVIKDSKLNNTNIRNSEKVYSCDQERQSALEEAQQNPREGIVIPECAPGGLYKPVQCHQSTGYCWCVLVDTGRPLPGTSTRYVMPSCESDARAKTTEADDPFKDRELPGCPEGKKMEFITSLLDALTTDMVQAINSAAPTGGGRFSEPDPSHTLEERVVHWYFSQLDSNSSNDINKREMKPFKRYVKKKAKPKKCARRFTDYCDLNKDKVISLPELKGCLGVSKEGRLV
modifications: biotin (biotinylated in vitro with BirA) where used on beads or captured on the chip
notes: SMOC1, human; also called SPARC-related ligand; source: Expi293F, purified (Ni-NTA, SEC); not shown: AviTag, C-terminal, kept
binding result [6]: binds

B4: PTPRA-ECD (receptor protein tyrosine phosphatase alpha, extracellular domain) (domain or fragment, human, UniProt P18433 20-151, looked up)
chain: NNATTVAPSVGITRLINSSTAEPVKEEAKTSNPTSSLTSLSVAPTFSPNITLGPTYLTTVNSSDSDNGTTRTASTNSIGITISPNGTWLPDNQFTDARTEPWEGNSSTAATTPETFPPSGNSDSKDRRDETP
modifications: biotin (BirA biotinylation; captured on streptavidin chip)
notes: receptor-type protein tyrosine phosphatase alpha (PTPRA, R4 subfamily), human, extracellular domain; source: Expi293F, purified (Ni-NTA, SEC), biotinylated in vitro with BirA
Kd [7]: 1130 nM

Continued, values first:

Kd [1]: 1000 to 2000 nM | binding result [2]: binds | binding result [3]: binds
B1: pleiotrophin (ligand, human, UniProt P21246 33-168, looked up)
chain: GKKEKPEKKVKKSDCGEWQWSVCVPTSGDCGLGTREGTRTGAECKQTMKTQRCKIPCNWKKQFGAECKYQFQAWGECDLNTALKTRTGSLKRALHNAECQKTVTISKPCGKLTKPKPQAESKKKKKEGKKQEKMLD
modifications: biotin (biotinylated in vitro with BirA) where used on beads or captured on the chip
notes: pleiotrophin, human; also called PTN; source: Expi293F, purified (Ni-NTA, SEC); not shown: AviTag, C-terminal, kept

Kd [4]: 1220 nM | Kd [5]: 1660 nM
B2: pleiotrophin (PTN) (ligand, human, UniProt P21246 33-168, looked up)
chain: GKKEKPEKKVKKSDCGEWQWSVCVPTSGDCGLGTREGTRTGAECKQTMKTQRCKIPCNWKKQFGAECKYQFQAWGECDLNTALKTRTGSLKRALHNAECQKTVTISKPCGKLTKPKPQAESKKKKKEGKKQEKMLD
notes: pleiotrophin (PTN), human; source: Expi293F, purified (Ni-NTA, SEC), not biotinylated (SPR analyte)
